Assays:
[1] = molecular target: A/Perth/16/2009 H3 trimer (for structural studies) (influenza A virus A/Perth/16/2009 (H3N2)); test: cryo-EM structure
[2] = molecular target: A/Perth/16/2009 H3 trimer (for structural studies) (influenza A virus A/Perth/16/2009 (H3N2)); test: crystal structure
[3] = molecular target: A/Michigan/45/2015 H1 trimer (for structural studies) (influenza A virus A/Michigan/45/2015 (H1)); test: cryo-EM structure

Substance | stoichiometry N [1] | stoichiometry N [2] | stoichiometry N [3]
A/Perth/16/2009 H3 trimer (for structural studies) (natural protein) | 3 | 3 | –
A/Michigan/45/2015 H1 trimer (for structural studies) (natural protein) | – | – | 3
